In the supplement of paper PMC9112550, “Optimization of the antimicrobial peptide Bac7 by deep mutational scanning” (BMC Biology, 2022):

Test system: Escherichia coli TOP10
Assay: shrunken log2 fold change of peptide-encoding DNA abundance (4.5 h post-induction vs induction); higher = less antimicrobial activity (less host growth inhibition)
Conditions: time post-induction: 4.5 h; library: site-saturation at positions 5, 18, 19, 20
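Also: peptides expressed intracellularly from a pBAD plasmid library in pooled LB shake-flask culture, induced with 0.3% L-arabinose, DNA abundance read by NGS, three biological replicates, DESeq2 with apeglm shrinkage.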

| Sequence | shrunken log2 fold change |
| --- | --- |
| RRIRCRPPRLPRPRPRPNYRPRP | -0.077 |
| RRIRSRPPRLPRPRPRPAMYPRP | -0.184 |
| RRIRARPPRLPRPRPRPKTSPRP | 0.331 |
| RRIRGRPPRLPRPRPRPFQLPRP | 0.0144 |
| RRIRIRPPRLPRPRPRPDEYPRP | 0.0287 |
| RRIRRRPPRLPRPRPRPHPGPRP | 0.316 |
| RRIRERPPRLPRPRPRPMDFPRP | -0.0298 |
| RRIRVRPPRLPRPRPRPWWVPRP | 0.00127 |
| RRIRNRPPRLPRPRPRPYCIPRP | -0.177 |
| RRIRHRPPRLPRPRPRPCHAPRP | -0.0924 |
| RRIRVRPPRLPRPRPRPIVVPRP | -0.129 |
| RRIRYRPPRLPRPRPRPWTTPRP | -0.000803 |
| RRIRARPPRLPRPRPRPLYVPRP | -0.0921 |
| RRIRSRPPRLPRPRPRPICGPRP | -0.056 |
| RRIRHRPPRLPRPRPRPHNMPRP | -0.364 |
| RRIRHRPPRLPRPRPRPAGLPRP | 0.269 |
| RRIRMRPPRLPRPRPRPSRSPRP | 0.902 |
| RRIRQRPPRLPRPRPRPYHPPRP | -0.531 |
| RRIRGRPPRLPRPRPRPWLWPRP | 0.0131 |
| RRIRGRPPRLPRPRPRPHFFPRP | 0.328 |
| RRIRRRPPRLPRPRPRPMSNPRP | -0.0453 |
| RRIRHRPPRLPRPRPRPFQQPRP | -0.0263 |
| RRIRYRPPRLPRPRPRPFHIPRP | -0.24 |
| RRIRWRPPRLPRPRPRPFTEPRP | -0.478 |
| RRIRSRPPRLPRPRPRPLKGPRP | 0.0623 |

| Sequence | shrunken log2 fold change |
| --- | --- |
| RRIRDRPPRLPRPRPRPMSCPRP | -0.00207 |
| RRIRRRPPRLPRPRPRPVQKPRP | 0.223 |
| RRIRFRPPRLPRPRPRPDPNPRP | -0.072 |
| RRIRCRPPRLPRPRPRPWSIPRP | 0.0457 |
| RRIRDRPPRLPRPRPRPDWYPRP | -0.0602 |
| RRIRARPPRLPRPRPRPRCQPRP | 0.316 |
| RRIRPRPPRLPRPRPRPWNEPRP | -0.138 |
| RRIRFRPPRLPRPRPRPQGPPRP | 0.0563 |
| RRIRRRPPRLPRPRPRPEYHPRP | 0.311 |
| RRIRQRPPRLPRPRPRPYKFPRP | -0.0369 |
| RRIRDRPPRLPRPRPRPSQEPRP | 0.111 |
| RRIRQRPPRLPRPRPRPNDMPRP | -0.296 |
| RRIRPRPPRLPRPRPRPYVWPRP | -0.365 |
| RRIRIRPPRLPRPRPRPTSQPRP | -0.283 |
| RRIRIRPPRLPRPRPRPGRRPRP | 0.18 |
| RRIRYRPPRLPRPRPRPWYYPRP | -0.00865 |
| RRIRLRPPRLPRPRPRPSIGPRP | -0.378 |
| RRIRQRPPRLPRPRPRPCWWPRP | 0.0676 |
| RRIRYRPPRLPRPRPRPIAEPRP | 2.73 |
| RRIRFRPPRLPRPRPRPATGPRP | 1.21 |
| RRIRGRPPRLPRPRPRPHCVPRP | 0.517 |
| RRIRWRPPRLPRPRPRPKGCPRP | -0.00617 |
| RRIRCRPPRLPRPRPRPVKWPRP | -0.24 |
| RRIRERPPRLPRPRPRPDICPRP | -0.553 |
| RRIRIRPPRLPRPRPRPHWYPRP | -1.16 |

| Sequence | shrunken log2 fold change |
| --- | --- |
| RRIRHRPPRLPRPRPRPGPRPRP | 0.417 |
| RRIRARPPRLPRPRPRPMNWPRP | 0.351 |
| RRIRQRPPRLPRPRPRPRTTPRP | 0.218 |
| RRIRVRPPRLPRPRPRPMCDPRP | -0.0462 |
| RRIRPRPPRLPRPRPRPEAGPRP | 0.566 |
| RRIRVRPPRLPRPRPRPFAHPRP | -0.176 |
| RRIRGRPPRLPRPRPRPDCNPRP | 0.679 |
| RRIRVRPPRLPRPRPRPHHPPRP | -0.131 |
| RRIRERPPRLPRPRPRPIENPRP | 0.0371 |
| RRIRTRPPRLPRPRPRPDIPPRP | -0.0961 |
| RRIRERPPRLPRPRPRPTMCPRP | 0.292 |
| RRIRKRPPRLPRPRPRPMKHPRP | -0.156 |
| RRIRHRPPRLPRPRPRPQTYPRP | -0.193 |
| RRIRDRPPRLPRPRPRPYFYPRP | -0.793 |
| RRIRPRPPRLPRPRPRPKAVPRP | 0.0993 |
| RRIRVRPPRLPRPRPRPMSNPRP | 0.0709 |
| RRIRLRPPRLPRPRPRPDKAPRP | 0.0248 |
| RRIRSRPPRLPRPRPRPAGTPRP | 1.67 |
| RRIRERPPRLPRPRPRPFPKPRP | 0.459 |
| RRIRQRPPRLPRPRPRPHYYPRP | -0.0332 |
| RRIRPRPPRLPRPRPRPAPHPRP | 0.402 |
| RRIRVRPPRLPRPRPRPSKSPRP | -0.172 |
| RRIRNRPPRLPRPRPRPLFPPRP | 0.643 |
| RRIRGRPPRLPRPRPRPDLTPRP | 0.219 |
| RRIRDRPPRLPRPRPRPWVNPRP | 0.0215 |

| Sequence | shrunken log2 fold change |
| --- | --- |
| RRIRKRPPRLPRPRPRPICRPRP | 0.0069 |
| RRIRFRPPRLPRPRPRPWIKPRP | -0.187 |
| RRIRDRPPRLPRPRPRPTPMPRP | 0.234 |
| RRIRERPPRLPRPRPRPWDVPRP | 0.0649 |
| RRIRHRPPRLPRPRPRPDSMPRP | 0.0959 |
| RRIRERPPRLPRPRPRPEHEPRP | -0.0139 |
| RRIRYRPPRLPRPRPRPLDWPRP | 0.171 |
| RRIRGRPPRLPRPRPRPIKRPRP | 0.171 |
| RRIRWRPPRLPRPRPRPFRRPRP | -0.134 |
| RRIRARPPRLPRPRPRPFQIPRP | -0.0627 |
| RRIRVRPPRLPRPRPRPGQVPRP | 0.0448 |
| RRIRMRPPRLPRPRPRPIKDPRP | -0.165 |
| RRIRQRPPRLPRPRPRPDSPPRP | 0.0174 |
| RRIRWRPPRLPRPRPRPGFIPRP | 0.0297 |
| RRIRVRPPRLPRPRPRPAYRPRP | -0.0828 |
| RRIRVRPPRLPRPRPRPGTFPRP | -0.867 |
| RRIRIRPPRLPRPRPRPNRQPRP | -0.56 |
| RRIRCRPPRLPRPRPRPPWRPRP | 0.751 |
| RRIRPRPPRLPRPRPRPMTGPRP | -0.239 |
| RRIRRRPPRLPRPRPRPDNQPRP | 0.0853 |
| RRIRQRPPRLPRPRPRPNDPPRP | -0.0265 |
| RRIRSRPPRLPRPRPRPACDPRP | 0.119 |
| RRIRTRPPRLPRPRPRPVDQPRP | -0.123 |
| RRIRWRPPRLPRPRPRPSNGPRP | -0.19 |
| RRIRWRPPRLPRPRPRPSLFPRP | 0.114 |

| Sequence | shrunken log2 fold change |
| --- | --- |
| RRIRQRPPRLPRPRPRPKGVPRP | -0.00208 |
| RRIRWRPPRLPRPRPRPGDIPRP | -0.133 |
| RRIRRRPPRLPRPRPRPFHAPRP | 0.201 |
| RRIRHRPPRLPRPRPRPNNHPRP | -0.915 |
| RRIRFRPPRLPRPRPRPYHEPRP | -0.26 |
| RRIRKRPPRLPRPRPRPFQVPRP | 0.0377 |
| RRIRRRPPRLPRPRPRPKSFPRP | 0.0604 |
| RRIRTRPPRLPRPRPRPQWNPRP | -0.832 |
| RRIRDRPPRLPRPRPRPHSFPRP | 0.0961 |
| RRIRARPPRLPRPRPRPMVQPRP | -0.081 |
| RRIRWRPPRLPRPRPRPNKFPRP | -0.369 |
| RRIRMRPPRLPRPRPRPEEYPRP | 0.0514 |
| RRIRFRPPRLPRPRPRPRYEPRP | -0.598 |
| RRIRYRPPRLPRPRPRPLKMPRP | -0.26 |
| RRIRKRPPRLPRPRPRPHYSPRP | -0.257 |
| RRIRCRPPRLPRPRPRPDEEPRP | 0.123 |
| RRIRTRPPRLPRPRPRPLRPPRP | 0.864 |
| RRIRRRPPRLPRPRPRPCYWPRP | 0.00692 |
| RRIRIRPPRLPRPRPRPVVMPRP | -0.0043 |
| RRIRHRPPRLPRPRPRPPAWPRP | 0.0414 |
| RRIRMRPPRLPRPRPRPFNPPRP | -1.51 |
| RRIRKRPPRLPRPRPRPMIMPRP | -0.0451 |
| RRIRHRPPRLPRPRPRPMVAPRP | 0.195 |
| RRIRRRPPRLPRPRPRPITQPRP | -0.0203 |
| RRIRHRPPRLPRPRPRPRYDPRP | -0.0205 |

| Sequence | shrunken log2 fold change |
| --- | --- |
| RRIRSRPPRLPRPRPRPQNDPRP | -0.13 |
| RRIRSRPPRLPRPRPRPIIKPRP | 0.18 |
| RRIRIRPPRLPRPRPRPLQQPRP | -0.293 |
| RRIRYRPPRLPRPRPRPMRCPRP | -0.000627 |
| RRIRHRPPRLPRPRPRPQDVPRP | 0.0527 |
| RRIRLRPPRLPRPRPRPYRDPRP | 0.0076 |
| RRIRARPPRLPRPRPRPFAEPRP | 0.762 |
| RRIRHRPPRLPRPRPRPMWGPRP | -0.234 |
| RRIRCRPPRLPRPRPRPFFAPRP | 0.216 |
| RRIRGRPPRLPRPRPRPVHTPRP | 0.174 |
| RRIRVRPPRLPRPRPRPVSGPRP | 0.0836 |
| RRIRIRPPRLPRPRPRPMPWPRP | 0.306 |
| RRIRSRPPRLPRPRPRPYMYPRP | -0.466 |
| RRIRYRPPRLPRPRPRPEHSPRP | -0.425 |
| RRIRERPPRLPRPRPRPAKYPRP | -0.274 |
| RRIRSRPPRLPRPRPRPCKCPRP | -0.359 |
| RRIRPRPPRLPRPRPRPTDVPRP | 0.35 |
| RRIRARPPRLPRPRPRPRVYPRP | 0.441 |
| RRIRFRPPRLPRPRPRPFMTPRP | -0.333 |
| RRIRQRPPRLPRPRPRPTTYPRP | -0.282 |
| RRIRLRPPRLPRPRPRPFSTPRP | 0.0382 |
| RRIRCRPPRLPRPRPRPKMYPRP | -0.342 |
| RRIRNRPPRLPRPRPRPCSCPRP | -0.0018 |
| RRIRNRPPRLPRPRPRPHKFPRP | -0.231 |
| RRIRSRPPRLPRPRPRPSVLPRP | -0.222 |
